Assay results as given in publication PMC10318394.

Legend:
[1] = target: T1, phospholamban (PLN), wild type, in mouse heart (mouse), P61014; assay: SDS-PAGE and western blot; settings: remark: other sources report otherwise
T1 chain: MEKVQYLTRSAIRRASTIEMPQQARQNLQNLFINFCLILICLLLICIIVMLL

[2] = target: T2, synthetic full-length PLN, P61014; assay: SDS-PAGE; settings: remark: other sources report otherwise
T2 chain: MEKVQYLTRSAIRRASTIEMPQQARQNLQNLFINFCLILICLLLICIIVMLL

| Binder | stoichiometry N [1] | stoichiometry N [2] |
| --- | --- | --- |
| phospholamban (PLN), wild type, in mouse heart, P61014 1-52 (natural protein) MEKVQYLTRSAIRRASTIEMPQQARQNLQNLFINFCLILICLLLICIIVMLL | 5 | – |
| synthetic full-length PLN, P61014 1-52 (natural protein) MEKVQYLTRSAIRRASTIEMPQQARQNLQNLFINFCLILICLLLICIIVMLL | – | 5 |
